# Experimental data: IntAct's records for PubMed 11741956
# B1: Proto-oncogene tyrosine-protein kinase LCK (Mus musculus), P06240 (parent)
# chain: MGCVCSSNPEDDWMENIDVCENCHYPIVPLDSKISLPIRNGSEVRDPLVTYEGSLPPASPLQDNLVIALHSYEPSHDGDLGFEKGEQLRILEQSGEWWKAQSLTTGQEGFIPFNFVAKANSLEPEPWFFKNLSRKDAERQLLAPGNTHGSFLIRESESTAGSFSLSVRDFDQNQGEVVKHYKIRNLDNGGFYISPRITFPGLHDLVRHYTNASDGLCTKLSRPCQTQKPQKPWWEDEWEVPRETLKLVERLGAGQFGEVWMGYYNGHTKVAVKSLKQGSMSPDAFLAEANLMKQLQHPRLVRLYAVVTQEPIYIITEYMENGSLVDFLKTPSGIKLNVNKLLDMAAQIAEGMAFIEEQNYIHRDLRAANILVSDTLSCKIADFGLARLIEDNEYTAREGAKFPIKWTAPEAINYGTFTIKSDVWSFGILLTEIVTHGRIPYPGMTNPEVIQNLERGYRMVRPDNCPEELYHLMMLCWKERPEDRPTFDYLRSVLDDFFTATEGQYQPQP
# Variants of: B1
# Details: with cbl_human CBL
row,Variant,effect of a mutation on the interaction
1,W97A,decreasing interaction
